Measured values reported in the supplement of paper PMC9170038.

What follows are sequences tested on K4 kissing-loop RNA reporter (assay: apparent KD of K4 kissing-loop reporter; higher = weaker reporter binding). Conditions: Eterna round: R107; input ligand: FMN 200 uM.
Procedure: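 RNA-MaP round R107: designed RNA switches with theophylline, tryptophan, arginine or FMN aptamers are transcribed on-chip within common flanks. They are titrated with a labelled K4 kissing-loop RNA reporter in RNA-MaP buffer (100 mM Tris pH 7.5, 80 mM KCl, 4 mM MgCl2), without ligand or with the indicated ligand. Median apparent KD per design.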
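Also: bound reporter read as fluorescence of individual clusters on recovered sequencing chips by microscopy, with normalized cluster intensities fitted with a binding model.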

Sequence | apparent KD of K4 kissing-loop reporter [nM]
CCCAAGGGCGAACCGGUAUGAUCGACGGAUACCAGAGGCGAAAGCCUCCCUUGGCAGCCGGCUGUAGUGAUGUUACACUGGUUCU | 139
AACUCUCAGACAUUUGAGUGAUGUUCAGGCCGAGGACCGGUACGGCCGCCACUCGGGUCUGAGAGAGGUUAUCAAAGAUAGCCAA [Omei KL Tryp A SS A v6] | 467
AGAGUUAAUUAGUCUUUUUUAACAUUAAGUCAGGAUAUCGUAUAUUCGAGAAGGGACACAUGCUAGUGAUGUUAGCUAUUUCUCA [JR_ExcFMNA_Sub018] | 50.2
UGGACCAGGAGUGAUGUUCCAAAAUGUGAUACCAGCCACGAAAGUGGCCCUUGGCAGCACUGCCAGGACGAAAACGUCCGGUCCU [#SwitchBubble 11 #StaticStem #K4Early] | 285
GGUCGGAGUGAUGUUCCGAGCUUCAGUCAUCGAGGACCGGUACGGCCGCCACUCGUCUACUAUGACGUAUCACCCUCCACGUGUU [theeternabot_sameState_KL_Trp_A_33] | 150
AAAAUAAACCAGUGAUGUUGGUGUCCAGAUACCAGCGAUAAUAAUCGCCCUUGGCAGCUGCGGACGUACAAAAUAAGUACGUCCU [MatMod 11 - Jieux - Same State - Theophylline A] | 482
UAAUAUACGAGUGAUGUUCGUUAUUUAUCAGAGGAUAUGCUUAAAUGCAGAAGGCUGUUUUUCUAAUUGAUAUUAAAUUUUUUUA [JR_Nu_ExcFMNA_Sub028] | 77.2
AUGCGGUGGAGGCUACCGCUAUUCUGAGAAGGAGCGCAGAUGACUGCAGGUAGGUCGCUUAGAGCUUGCAGUGAUGUUGCAAGUU [Islatimaed] | 200
GCUAUGGUAGGAAGGAGCGCUUAAUUACUAAUAAGAGUGAUGUUCGAUAGUAGGUAUUUAUAGCAGGUAGGUCGCCUACUAUAGC [KL-Arg B23] | 200
CACUCGGUAUCAGAUACCAGACUAACGAUACCGAGUGUAUCGGGUAGUGAUGUUACCAUAGUCCCUUGGCAGCUGAUAUACCAUA [Theo B SS t9] | 249
UAAUCCUAGUGAUAAUAAUCAAGUGGUGGACGAGGACCGGUACGGCCGCCACUCGAAAAUGCAGUGAUGUUGUAAUCCGGAUAAU [Exclusion - Tryptophan A (Freestyle 4)] | 627
ACGUCAUCAAAAGGAUAUGCAUCGAAGUGAUGUUUCGUCAUAUCAGUCUGAUUGCAGCAAUUAGGAGCAGAAGGUUUAGUCCGGU [theeternabot_exclusion_KL_FMN_B_11] | 91.6
ACCGCAUUGGGAUGAUCCCAAUGCGCUGGUCGAGGACCGGUACGGCCGCCACUCGUCCAGUGAUGUUGGACUAGGGCAACUGAAG [Bileesma] | 519
UGAUUUAACUGAAGGAGCGGCAAUUGAUAAGUAAAUAUAGUGAUGUUAUAUAAGAUAGAGAGCCAGGUAGGUCGCAGAGGUAGGA [ExArgB.K] | 193
AAGUGAUGUUGUAGUGAUGUUGUGAUGUUGCAGGAUAUAUAGUGAUGUAGAAGGGUAUGUACUUAUUUUUUUUUUGAGUUUUGUU [xgghzrmullin] | 82
AUAUUAAGCGGAAGGAGCGGCUGAACCAGUGAUGUUGGUUAAUCCAAGUGAUGUUGGAAAAGCCAGGUAGGUCGCCGCUAUAUAU [Same State Arg B GF 1] | 725
AUUAAUAUCACGGCCGCCACUGAAUAUUGUUUUUAUAUUUAGAAUAAUUGCCAGUGAUGUUGGAUCAGGACCGGGUGAUUUUAUA [JR_SSTryptoB_Sub008] | 775
AAAAUAAUCCAGUGAUGUUGGUAUCCAGAUACCAGCCACGAAAGUGGCCCUUGGCAGCUGUAGGACGUACAAAUAAGUACGUCCA [#OpenEnded 7 #StaticStem #K4Early] | 361
UGAUAGGACAGAAGGAGCGGCAGUGAUGUUGCCAAAAGGAUAAGGUGUCAAAAGACACCCUGCCAGGUAGGUCGCUGUCCUAUCU | 179
CGAGUGAUGUUCGUUCGUUUAUUUGGGUGACAGGAUAUGCGGAAACGCAGAAGGGUCACCUUCGGGUUACCCGAAUUAACGUUAU [#09 K4 FMN A Exclusion] | 724
CUCGAGUGAUGUUCGAUUAUGUAUACAGAUACCAGUGAAUUUUAACACCCUUGGCAGCUGGUAGAAUCAUUUUAAUUUUAACUAG [JR_SSTheophyA_Sub021] | 201
GGUAGCAUGGCGGCCGCCACUUCAAUUGGAGUGAUGUUCCAAGGCAUCGCGAAAGCGAUGCCAGGAAGGACCGGGCCAUGCUACC | 271

Sequence | apparent KD of K4 kissing-loop reporter [nM]
AAAAUAAAUCAGUGAUGUUGGUGUCCAGAUACCAGCGACGAAAGUCGCCCUUGGCAGCUGUGGACGUACAAAAUAAGUACGUCCU [MatMod 22 - Jieux - Same State - Theophylline A] | 610
GCGGGCGGCUGAAGGAGCGGGCGGGCCCGAGUGAUGUUCGGGUGGGCCGUGAGGCCCGGAGCCCAGGUAGGUCGCGGUUCCGUCC [#2 Same State - Arginine B Attempt #19 (HarryS)] | 162
GGAUAGGAUAGAGGAUAUGGGUUAGGCAAGAAUAACUUGUCUUGUAAAUCCAUGAGGAGUGAUGUUCCAGAAGGCUGUCCUAUCG [MatMod 5 - Jieux - Exclusion - FMN B] | 301
AAAAUAAACCAGUGAUGUUGGUGUCUGGAUACCAGCGACGAAAGUCGCCCUUGGCAGCUACGGACGUACAAAAUAAGUACGUCCU [MatMod 8 - Jieux - Same State - Theophylline A] | 709
UGUCGAGUGAUGUUCGAUUUGGUGCAUGCAGAGGAUAUAGGGUGGGCUAGAAGGCUGAAAAGUGCUUCGAGUGAUGUUCGAAGUU [Exclusion FMN A GF10] | 117
GAGGUACAGGCGGCCGCCACUAGUGAUGUUAGUGAUAGAAGAUAUAGUAAAUAUCGGCAUUUAGAUAGGACCGGGCCUGGUGGUG [ffdfcmullin] | 296
AAGUGUGUGGCGGCCGCCACUAGUCUCCAGUGAUGUUGGAGAUAUCACGUAAGUGAUAUCCGACAUAGGACCGGGCCAUAUAGAA [Same State - Tryptophan B (Freestyle 21)] | 601
AGGUCCGAGCCUGUAAAGGCUCGGACCUGUUAGGAUAUGACGUUAUUCAGAAGGGAUGGGUGGAGUGAUGUUCCACCCGCAAGGG [#2 Same State - FMN A Attempt #5 (HarryS)] | 107
UAUGGUCCAUCAAGAGUAGUGAUGUUAUAACGAGGACCGGUACGGCCGCCACUCGAGGCCGUAAUACUCGAUCGGAUGCUGAGUG [theeternabot_exclusion_KL_Trp_A_28] | 815
CCAAUCUGUUACGAUACCAGUCAAAGAUAUUUGAUCAAUACCCUCACCGAGUGAUGUUCGGACCCUUGGCAGCGUCUGGGAUAGG [ceevmullin] | 228
CUAUCCCGCCGUGUAUGUAGUAUACGGUGCCGAGGACCGGUACGGCCGCCACUCGAUAAGCUUUGUCGGAGUGAUGUUCCGACCG [Soleesen] | 277
UAAUUUAUGUCUUUAAUAUAAUAAUCAGAUACCAGUGAUUAAUGACACCCUUGGCAGCUGUAUAGAGUGAUGUUCUUAUGCUUAA [JR_ExcTheophyA_Sub010] | 245
GGAGGGAUCUCGGCCGCCACUCAUAAGAAAUGAACCUAAGAAAUAUAGUGAUGUUAUAUAAAGAAGAGGACCGGGAGAAAGGAGG [ExTryptoB.A] | 148
GGGAGUAGUGCGGCCGCCACUGUGAAAGAAGAAGAAUAUAGUGAUGUUAUAUAGGAAUUAAAGAAUAGGACCGGGCAUUAGAUUU [SSTRyptB.Q] | 248
AACUCUCAGACACCUGAGUGAUGUUCAGGCCGAGGACCGGUACGGCCGCCACUCGGGUCUGAGAGAGGUUAUCAAAGAUAGCCAA [Omei KL Tryp A SS A v3] | 675
UGCAGUGAUGUUGCUAUUUUUCUUGAUUAACGAGGACCGGUACGGCCGCCACUCGAUUUCUCUCUAAUCCAGUAUGUUGUUUAGU [JR_ExcTryptoA_Sub001] | 111
UGAUAGGAGAGAAGGAGCGGGAGUGAUGUUCCCAAAGAUUGGUCUAGCAAAGCUGGACCCUCCCAGGUAGGUCGCUCUCCUAUCU [KL-XARG-B16] | 382
CGAGUGAUGUUCGAAGAGUUGUUAAGCGAUACCAGCUAGGAAACUGGCCCUUGGCAGCGUAAUAAGUUAAUAAAUAAAUGAUCAC [whbob_Ex_Theo_A_th64] | 376
GAUGAUCGCGCGGCCGCCACUGGUCAGUGAUGUUGACAUUAAGGCGCCGAGUAGUAACGGCGCCACAGGACCGGGCGCGAUGUAG [First Shot] | 135
UGCUUUAUCAGAAGGAGCGCGUUGGUCAUAAUAAUAAUCAGUGAUGUUGAUAUAUGAGGAUUGCAGGUAGGUCGCUGAUAUAGCU [KL-XARG-B1] | 323
GUGUGUGUCGGAGGAUAUGCGGUGGGUGUGGGCGGAUUAGUGAUGUUGGUUGUGGUGGUGGUGGGUGUAGAAGGUUGGUGUGUGU [RHig 3/7 C] | 710

Same assay, conditions: Eterna round: R107; input ligand: arginine 13.2 mM

Sequence | apparent KD of K4 kissing-loop reporter [nM]
CCCAAGGGCGAACCGGUAUGAUCGACGGAUACCAGAGGCGAAAGCCUCCCUUGGCAGCCGGCUGUAGUGAUGUUACACUGGUUCU | 98.9
AACUCUCAGACAUUUGAGUGAUGUUCAGGCCGAGGACCGGUACGGCCGCCACUCGGGUCUGAGAGAGGUUAUCAAAGAUAGCCAA [Omei KL Tryp A SS A v6] | 179
AGAGUUAAUUAGUCUUUUUUAACAUUAAGUCAGGAUAUCGUAUAUUCGAGAAGGGACACAUGCUAGUGAUGUUAGCUAUUUCUCA [JR_ExcFMNA_Sub018] | 90.5
UGGACCAGGAGUGAUGUUCCAAAAUGUGAUACCAGCCACGAAAGUGGCCCUUGGCAGCACUGCCAGGACGAAAACGUCCGGUCCU [#SwitchBubble 11 #StaticStem #K4Early] | 191
GGUCGGAGUGAUGUUCCGAGCUUCAGUCAUCGAGGACCGGUACGGCCGCCACUCGUCUACUAUGACGUAUCACCCUCCACGUGUU [theeternabot_sameState_KL_Trp_A_33] | 142
AAAAUAAACCAGUGAUGUUGGUGUCCAGAUACCAGCGAUAAUAAUCGCCCUUGGCAGCUGCGGACGUACAAAAUAAGUACGUCCU [MatMod 11 - Jieux - Same State - Theophylline A] | 351
UAAUAUACGAGUGAUGUUCGUUAUUUAUCAGAGGAUAUGCUUAAAUGCAGAAGGCUGUUUUUCUAAUUGAUAUUAAAUUUUUUUA [JR_Nu_ExcFMNA_Sub028] | 90.1
AUGCGGUGGAGGCUACCGCUAUUCUGAGAAGGAGCGCAGAUGACUGCAGGUAGGUCGCUUAGAGCUUGCAGUGAUGUUGCAAGUU [Islatimaed] | 168
GCUAUGGUAGGAAGGAGCGCUUAAUUACUAAUAAGAGUGAUGUUCGAUAGUAGGUAUUUAUAGCAGGUAGGUCGCCUACUAUAGC [KL-Arg B23] | 171
CACUCGGUAUCAGAUACCAGACUAACGAUACCGAGUGUAUCGGGUAGUGAUGUUACCAUAGUCCCUUGGCAGCUGAUAUACCAUA [Theo B SS t9] | 242
